Patent publication US20240294622A1 (SUZHOU TRANSCENTA THERAPEUTICS, published 2024)

Biological target: T1, DAN-his (Sinobiological) (human, UniProt P41271 17-181, limits assumed)
T1 construct: also called DAN (Sinobiological); human DAN-his
T1 sequence (looked up): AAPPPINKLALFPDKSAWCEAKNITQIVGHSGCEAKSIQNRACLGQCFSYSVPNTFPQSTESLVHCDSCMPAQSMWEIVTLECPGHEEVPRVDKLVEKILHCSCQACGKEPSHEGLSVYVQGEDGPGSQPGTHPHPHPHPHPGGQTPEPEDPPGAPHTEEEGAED
Assay: ELISA on coated DAN-his; unit from the axis Ab(nM)
Experimental: Clear polystyrene plates (BEAVER) were coated with 100 μl/well of a 0.5 μg/ml human gremlin (ACRO) and DAN (Sinobiological) in high pH coating buffer overnight at 4° C. Then the plates were washed once on an automatic plate washer using PBS+0.1% Tween 20 (Sigma). 100 μl of block solution consisting of PBS+1% BSA+1% normal goat serum+0.5% Tween 20 (Sigma) was added to each well and incubated at room temperature for 2 hours. Then 100 ul of antibodies (hybridoma or chimeric antibody 36F5, chimeric antibody 67G11, chimeric antibody 42B9) in antibody dilution buffer containing PBS+1% BSA+1% normal goat serum+0.01% Tween 20 starting from 2 μg/ml (13.33 nM) and then 4 fold serial dilution were added to each well of the plate and incubated for 1 hours at room temperature. Afterward the plates were washed three times with 200 ul of PBS+0.1% Tween20 followed by adding 100 μl/well 1:10000 Goat anti mouse IgG-HRP or mouse anti-human IgG-HRP (abcam), and incubate for 1 hour at room temperature. They were then washed 3× with PBS+0.1% Tween20. Finally, 100 μl/well of TMB (InnoReagents) was added to each well and after 2 minutes add 50 ul of stop solution to each well. The plates were read on a Multiscan FC microplate reader (Thermo Scientific) at 450 nm.

EC50: 0.0309 nM
B1: 36F5 (antibody, V domains shown)
VH: QVQLQQSGAELARPGASVKLSCKASGYSFTSSGIGWVKQRSGQGLEWIGEIYPRSGNTYNNEKFKGKATLTADKSSSTVYMELRSLTSEDSAVYFCVREAYSHHYYAMDYWGQGTSVTVFS
VL: DVLMTQTPLSLPVSLGGQASISCRSSQSLLHSNGNTYLEWYLQKPGQSPKLLIYKVSNRFSGVPDRLSGSGSGTDFTLKISRVEAEDLGVYYCFQGSHVPFTFGSGTKLEIN
notes: mouse hybridoma antibody; also called hybridoma 36F5
